Measurements from the DeepSol protein solubility set.

test: soluble on expression in E. coli; label from the status in PepcDB or PDB records

| Sequence | soluble on expression in E. coli |
| --- | --- |
| MASDNLSAVLYKQNDLRLEQRPIPEPKEDEVLLQMAYVGICGSDVHYYEHGRIADFIVKDPMVIGHEASGTVVKVGKNVKHLKKGDRVAVEPGVPCRRCQFCKEGKYNLCPDLTFCATPPDDGNLARYYVHAADFCHKLPDNVSLEEGALLEPLSVGVHACRRAGVQLGTTVLVIGAGPIGLVSVLAAKAYGAFVVCTARSPRRLEVAKNCGADVTLVVDPAKEEESSIIERIRSAIGDLPNVTIDCSGNEKCITIGINITRTGGTLMLVGMGSQMVTVPLVNACAREIDIKSVFRYCNDYPIALEMVASGRCNVKQLVTHSFKLEQTVDAFEAARKKADNTIKVMISCRQG | soluble |
| MASEHFDMWESRFSADGYLFGTAPNAFLASCHDLLPKQGRALAIADGEGRNGVFLAECGLSVLSVDFSPTAQAKAHKLAAERGVTIETRTADLLSWQWPGGFDVIAGIFFQFVEPEQRPQIFQQIRAALKPGALLLIEGYRPKQLAYKTGGPSRAENLYTRELLEQAFGDFDNLSIRERDSEIVEGAGHAGLSALIDLIGWKPKLEHHHHHH | not soluble |
| MASFKVKPEHTGPPDLYYNETEAAKYASNSHITAIQHEMAERALELLALPEGKSGFLLDIGCGTGMSSEVILDAGHMFVGVDVSRPMLEIARQDEDLESGDFIHQDMGLGMPFRPGSFDGAISISAIQWLCHANASDENPRKRLLFFFQSLYGCLGRGSRAVFQFYPENDEQCDLIMGQAHKAGFNGGLVVDFPEAAKRKKVYLVLMTGGVVQLPQALTEDGEESRTQIDNAGRRFVWNSRKNEKVAKGSKAWIEAKRQRQIKQGRDVRHESKYSGRKRKTKF | not soluble |
| MASGENLAPRDAKVISVILRSLGIEECEPKVIIQLLEFAYRYTTDVLEDALLFAKHTGRTHITTSDVKLALQTKVGRHFVPPPPRQYLSEISTMVNSKPLTIPDGENLIRVPPSSSALLNLDYEVLRKDSDKKRRIY | not soluble |
| MASGILVNVKEEVTCPICLELLTQPLSLDCGHSFCQACLTANHKKSMLDKGESSCPVCRISYQPENIRPNRHVANIVEKLREVKLSPEGQKVDHCARHGEKLLLFCQEDGKVICWLCERSQEHRGHHTFLTEEVAREYQVKLQAALEMLRQKQQEAEELEADIREEKASWKTQIQYDKTNVLADFEQLRDILDWEESNELQNLEKEEEDILKSLTNSETEMVQQTQSLRELISDLEHRLQGSVMELLQGVDGVIKRTENVTLKKPETFPKNQRRVFRAPDLKGMLEVFRELTDVRRYWGKEKSHYHKPPCGLSLLLSLSFRILCSLLGSCFKIYDSPSKTHITYPSL | soluble |
| MASKLLRAVILGPPGSGKGTVCQRIAQNFGLQHLSSGHFLRENIKASTEVGEMAKQYIEKSLLVPDHVITRLMMSELENRRGQHWLLDGFPRTLGQAEALDKICEVDLVISLNIPFETLKDRLSRRWIHPPSGRVYNLDFNPPHVHGIDDVTGEPLVQQEDDKPEAVAARPRQYKDVAKPVIELYKSRGVLHQFSGTETNKIWPYVYTLFSNKITPIQSKEAYLEHHHHHH | soluble |
| MASLFTQEIHLSKRHEEILSQRLMLLQKMKNKFGDENTERASLLQATETASRRNLRLLKDIDAAEEAFQTKLIPHPQPSMLSLETRYWASVEEHIPKWELFLLGRAPYPIGAENQNEVPFVQTEATL | soluble |
| MASLGEILEGRATDIYFVRTRRVAEKYGVGGKRVRMEVHAYSLPRGYEWAVYAGLEEALALLQGKPVTVYSLPEGTVFERKDPLMVVEGRFQDIILFETALLGLLRFSTSIATKAARVRLAAGRGKTVLFFGLRALHPAVQPAADRAALVGGLDGVSGVLSREYLGVEPRGTMPHALIIVFGSQVEAWRAFAETFKEETPVIALVDTFWDEREEALMAARELGEVLAGVRLDTPSSRRGRMRDIVEEVRWALDIHGYKHVKIFVSGGLDEERVAELRDVADGFGVGTTIAAAPNIDISMDVVEVHEDGEWRPRTKRGKLPGARSIVLCRGEKRIVRLGEEPEGCEPLTRKYLEEGRLAQSLPSLDEIRSYVLKQLENLGLQ | soluble |
| MASLPTANPDLVVSDAKKPKWSWRAIKSFAMGELEARKLKYPNTGTEALLMGILIEGTSFTSKFLRANKIMLYKVREETVKLLGKADMYFFSPEHPPLTEDAQRALDSALDQNLKAGGIGEVMPAHILLGIWSEVESPGHKILATLGFTDEKSKELESFASESGFLDELEHHHHHH | soluble |
| MASMTGGQQMGRGSEEPNPNDGYDYMQHGFDWPGLQEGGTTKYPACSGSNQSPIDINTNQLMEPSSRSGTSAVSLNGLNVDGAQADGITLTNAKVDLEQGMKVTFDQPAANLPTIEIGGTTKSFVPIQFHFHHFLSEHTINGIHYPLELHIVMQEQDPADVATAQLAVIGIMYKYSENGDAFLNSLQTQIEGKIGDGTASYGDTGVSIDNINVKTQLLPSSLKYAGYDGSLTTPGCDERVKWHVFTTPREVTREQMKLFVDVTMGAHAGADVVNNRMIQDLGDREVYKYNY | soluble |
| MASNEVLVLRGTLEGHNGWVTSLATSAGQPNLLLSASRDKTLISWKLTGDDQKFGVPVRSFKGHSHIVQDCTLTADGAYALSASWDKTLRLWDVATGETYQRFVGHKSDVMSVDIDKKASMIISGSRDKTIKVWTIKGQCLATLLGHNDWVSQVRVVPNEKADDDSVTIISAGNDKMVKAWNLNQFQIEADFIGHNSNINTLTASPDGTLIASAGKDGEIMLWNLAAKKAMYTLSAQDEVFSLAFSPNRYWLAAATATGIKVFSLDPQYLVDDLRPEFAGYSKAAEPHAVSLAWSADGQTLFAGYTDNVIRVWQVMTAN | soluble |
| MASQSQGIQQLLQAEKRAKDKLEEAKKRKNKRLRQAKEEATADIDQYRLKREADFRRIQTSVMGSQGNLAVKIEEQTVEKIQFYSSSYNKYKEGVLKELLDLAYNIKPELHTNYKYKI | not soluble |
| MASRLNEDPEGSRITYVKGDLFACPKTDSLAHCISEDCRMGAGIAVLFKKRFGGVQELLSQQKKSGEVAVLKRDGRYIYYLITKKRASHKPTYENLQKSLEAMKSHCLKNGVTDLSMPRIGCGLDRLQWENVSAILEEVFESTDIKITVYTL | not soluble |
| MASSSNFMAPPPKMNKTSSMNSLRKTLGLKKPNNGELSMVPSRPIVSPTLSSPLQGSGAAPLEKDYHSLEYRLTHGHWRIFNSKSVFGNKDASVLVFDKKSNVKAPPKLGKSKTYSMFDLIKYETQQLMGLIHPRILHMEHSLEETKDYISFATEQIFGNLENVVTDESLDRLEIKLGVLQIIDGMSYLHNSAKMLHGNLTPDAIYVTATKTWKIGGFSFAVNAKEPNCYPCYPWTKKLPPCLQPDLDFLAPENLAPGQTTVTSAADVFSLGVLICWIYAGGKRLIDAKSNLETYHIVVGQLDAALQCISNELGPNLKDSMAKVLSLDVEVRPTVQLLSLIKHFDDPCLSALRQLDDIAQVFDPSQKSHFLSQTLNVAIPHISESVWFNRVLPRFNEQLLELPEMYYPITKPLFHILEHCESHNIHKMKPWIRKLMEAAPHNKLLRAFILENMSALFRRLSDEFVEDKCLDVIILSLKSEDTSLQSSAVRGLPHVAEYLPVGFITKKLIPAIMGLPPFLHENVPRQLDLLAALAALSDRCDVSSIVHLFGCISLCNSSHPVIVHAKSRIVQRLVMRDPNRLKDSQLLSIHLLNPLVNGLACKDLSTFSCAHFDDVLSSVRILLDVLEQRRYEMEDRQEHKQSNHHLGLNRLGNRRVSMSSTNLPRVMISAARPSFSSDSRKMSFLSADGRLEDRGSRRESRDSRGSLESDMSIRIGNGSDISDDSCFSSHSAKGRRQSWLDGYGHSVSLEQNTNGFLETTSRNLGDRNSMNFKQRNARASERRARTRSPNAELDPQREQPPARPNSFTNLGHNIVLTYRNLLYKDHT | not soluble |
| MASSTISLQSISMTTLNNLSYSKQFHRSSLLGFSKSFQNFGISSNGPGSSSPTSFTPKKKLTPTRALSQNLGNTENPRPSKVQELSVYEINDLDRHSPKILKNAFSFRFGLGDLVPFTNKLYTGDLKKRVGITAGLCVVIEHVPEKNGDRFEATYSFYFGDYGHLSVQGPYLTYEDSFLAITGGAGIFEGAYGQVKLQQLVYPTKLFYTFYLKGLANDLPLELIGTPVPPSKDVEPAPEAKALKPSGVVSNFTN | soluble |
| MASTANMISQLKKLSIAEPAVAKDSHPDVNIVDLMRNYISQELSKISGVDSSLIFPALEWTNTMERGDLLIPIPRLRIKGANPKDLAVQWAEKFPCGDFLEKVEANGPFIQFFFNPQFLAKLVIPDILTRKEDYGSCKLVENKKVIIEFSSPNIAKPFHAGHLRSTIIGGFLANLYEKLGWEVIRMNYLGDWGKQFGLLAVGFERYGNEEALVKDPIHHLFDVYVRINKDIEEEGDSIPLEQSTNGKAREYFKRMEDGDEEALKIWKRFREFSIEKYIDTYARLNIKYDVYSGESQVSKESMLKAIDLFKEKGLTHEDKGAVLIDLTKFNKKLGKAIVQKSDGTTLYLTRDVGAAMDRYEKYHFDKMIYVIASQQDLHAAQFFEILKQMGFEWAKDLQHVNFGMVQGMSTRKGTVVFLDNILEETKEKMHEVMKKNENKYAQIEHPEEVADLVGISAVMIQDMQGKRINNYEFKWERMLSFEGDTGPYLQYAHSRLRSVERNASGITQEKWINADFSLLKEPAAKLLIRLLGQYPDVLRNAIKTHEPTTVVTYLFKLTHQVSSCYDVLWVAGQTEELATARLALYGAARQVLYNGMRLLGLTPVERM | soluble |
| MASVVGTPKSAEQIQQEWDTNPRWKDVTRTYSAEDVVALQGSVVEEHTLARRGAEVLWEQLHDLEWVNALGALTGNMAVQQVRAGLKAIYLSGWQVAGDANLSGHTYPDQSLYPANSVPQVVRRINNALQRADQIAKIEGDTSVENWLAPIVADGEAGFGGALNVYELQKALIAAGVAGSHWEDQLASEKKSGHLGGKVLIPTQQHIRTLTSARLAADVADVPTVVIARTDAEAATLITSDVDERDQPFITGERTREGFYRTKNGIEPCIARAKAYAPFADLIWMETGTPDLEAARQFSEAVKAEYPDQMLAYNCSPSFNWKKHLDDATIAKFQKELAAMGFKFQFITLAGFHALNYSMFDLAYGYAQNQMSAYVELQEREFAAEERGYTATKHQREVGAGYFDRIATTVDPNSSTTALTGSTEEGQFH | soluble |
| MASWTLVDASAIAVRHPYTFYKPDAETIDRVAAGESVKLIFAFDTDNPDAPRAERLWVTVEGIEADGAFSGRLDNYPQYIRDLSLGERIVFEARHIINTEHDPRETPISRYARRCFVTRRVIDEGKAVGYLYREAPEEENDSGWRLMAGDESDDYMNTAGTTAYVSLGSVLNADDSILPLLDAPPGRAFERLADGSFIEVQGPEG | not soluble |
| MASYTLRQLKYFVTTVECGSVAEASRKLYIAQPSISTAVKGLEESFGVQLFIRHHAQGVSLTPAGARFYRKAQELLRMAHEFEQNALADNDVIAGQIDIGCFETVAPLYLPGLIAGFRQAYPGVEIRIRDGEQQELVQGLTSGRFDLAFLYEHDLDSTIETEPLMPPQRPHALLPEGHRFAGQAQVSLRDLCLEPMILLDVQPSRTYFVSLFEELGLTPNIAFSSPSIEMVRGMVGQGFGFSLLVTRPHSECTYDGKKVVMVDLAEPVSTSGLAAAWLKRAQLTKPARLFVDYCREQLGKLAERRH | soluble |
| MATASADTLCSQQEDESWGNLMLHGFQVEAYKPVRVGDKVCYSFYLKNTGSSDVTLGKKGVYLHTNDGDLSSNSGATISPGKSIFVKDCFIASSSGEWTTYPGVCIITAKGEFCHNFETSCTFDVFIECPENWNCMTAEDASQGNYIRYSDELCGYTITGFTAMNKVRCTATEKLLNALQALGV | not soluble |
